Measurements as given in US20260185137A1 (University of Texas, published 2026).
Numbering of substitutions follows the chain as printed. Numbers in names are those of the source.

Tests used:
[1] = target: the molecule itself; experiment: 15N-TROSY HSQC NMR (self-association of the RING domain); sample concentration is not printed on the sheet
Description: NMR spectroscopy. All NMR experiments were performed in 50 mM Sodium Phosphate (pH 7.5), 150 mM NaCl, 1 mM TCEP, 10% (v/v) D₂O, 0.04% (w/v) NaN₃, and the data collected at 298K on a Bruker Avance 700-MHz spectrometer equipped with a cryoprobe. Backbone assignments were carried out using standard TROSY triple resonance NMR experiments (HNCO, HN(CA)CO, HN(CO)CA, HNCA, HNCACB, and HN(CO)CACB). Protein concentrations for each experiment are shown in the corresponding figures or noted in figure legends. The NMR data were processed using NMRPipe and spectra evaluated using NMRFAM-Sparky.

[2] = target: the molecule itself; experiment: sedimentation equilibrium analytical ultracentrifugation, monomer-dimer self-association model

B1: R1-I77R, RING domain construct of rhesus monkey TRIM5alpha with the I77R mutation (enzyme, UniProt Q0PF16 2-90, looked up)
chain: ASGILLNVKEEVTCPICLELLTEPLSLHCGHSFCQACITANHKKSMLYKEGERSCPVCRISYQPENIQPNRHVANRVEKLREVKLSPEE
notes: range 2-90; Tags were removed by TEV protease
B1: no binding [1].

B2: R1-WT, monomeric RING domain construct of rhesus monkey TRIM5alpha (enzyme, UniProt Q0PF16 2-90, looked up)
chain: B1 chain with R76I
notes: range 2-90; Expressed with N-terminal 6His-GB1-TEV tags that were removed by TEV protease; also called isolated RING monomer
Work on B2 yielded a Kd [2] of ~60 µM.
